Assay results as given in US10975360B2, “Process for the modification of alkanes, fatty acids and fatty alcohols” (priority 2016, dated 2021).

Format: cell-based, P. pastoris
Procedure: Precultures of P. pastoris transformants were prepared in buffered complex glycerol media (BMGY). BMGY contained: 10 g/l yeast extract, 20 g/l peptone, 3.4 g/l yeast nitrogen base, 10 g/l ammonium sulfate, 100 mM potassium phosphate (pH 6), 0.4 mg/l biotin and 1% (v/v) glycerol. Erlenmeyer flasks (500 ml) containing 50 ml BMGY media were inoculated with single colonies of 24 h old YPD-agar cultures of P. pastoris KM71 mut^s3/CYP505E3 and incubated at 30° C. and 225 rpm for 24 h. The cultures were harvested using pre-weighed centrifuge tubes at 3000 g for 5 min and stored on ice until further use.
The main cultures for expression were prepared in buffered complex methanol media (BMMY) containing 10 g/l yeast extract, 20 g/l peptone, 3.4 g/l yeast nitrogen base, 10 g/l ammonium sulfate, 100 mM potassium phosphate (pH 6), 0.4 mg/l biotin and 0.5 or 1% (v/v) methanol. Harvested cells from precultures were resuspended in BMMY media to final concentration of 1 g WC per 40 ml (appx. 25 g/l). The resuspended cultures (100 ml) were transferred to 500 ml Erlenmeyer flasks and incubated at 25° C. and 225 rpm for 24 h. The cultures were then harvested at 3000 g for 5 min using pre-weighed centrifuge tubes.
Different transformants of Pichia pastoris KM71 harbouring the CYP505 genes for SEQ ID Nos 1 to 7 and 9 to 12 were grown and harvested as described above. The harvested cells were resuspended to give 1 g wet cell weight in 40 ml MOPS buffer (200 mM, 100 mM glucose, 100 mM glycerol, pH 8) and 1 ml aliquots of these cell suspensions were transferred to 40 ml amber vials. Dodecane, 1-dodecanol and 1-tetradecanol were added neat to these cell suspensions to give final concentrations of 200 mM in the case of the alcohols and 1 M in the case of dodecane while in the case of dodecanoic acid 20 μl of a 500 mM stock solution (in DMSO) was added to give a final concentration of 10 mM. Transformants harbouring the CYP505 genes for SEQ ID Nos 1 to 4 were tested for the biotransformation of 1-dodecanol, 1-tetradecanol, dodecanoic acid, tetradecanoic acid and dodecane, while those harbouring the CYP505 genes for SEQ ID Nos 5 to 7 and 9 to 12 were only tested for the biotransformation of 1-dodecanol and dodecanoic acid. The biotransformations were incubated at 25° C. and 225 rpm for 24 h. Extractions were performed using ethyl acetate (500 μl×2). The extracts were analyzed using GC/MS.

| Molecule | ω-7 hydroxylase activity C12FA | ω-7 hydroxylase activity C12ol |
| --- | --- | --- |
| CYP505Om: CYP505 cytochrome P450 monooxygenase from Oidiodendron maius, SEQ ID No 11 (protein, listed as Oidiodendron maius) MTKKNHALIPIPGPSVWPLLGNLFDIDTEHGLASVLEMGRSYGDIFQLVLGGNKLVFLQTHALFDEVCDESRFCKVVVSGLGNLRAGVNDGLFTAHDGEHNWGVAHRIIMPIFGPIKIRETLGGMKDVCQELSLKWARYGPDHRIDIAGDLTRLTLDTIAFCTMGYRFNSFYRNSDVHPFVKSMVGFLREADKSSMIPEYLNAFRWKARRSFLGDIASMREMSMMILNLRRGNPSDRDDLLNALLHGRDPKTGEGMSDESIINNLITFLVAGHETTSGALSFVFYYLLTNPESLKNAREEVDRVIGAGNITADHLSKLPYIDAVLREALRLNPTGPAITLGAREDTTLGGKYAVKKGEPVLCMFHNIHRDKKVYGEDADEWKPERMMDENFNKLPKNAWKPFGNGTRGCIGRAFAWQESQLVIASILQNFDLTLDNPDYKLEIVETLTIKPGNFYVRAKLRSGRTPRELCGFSNPISTNIQIKNGTIAPANDGQVGNSTPVTILYGSNSGTCEALAHRLARDAPSYGYSVTTVATLDSVIGILPRAKDELVVIITCSYDGLPADNAVRFCNWLKTLDEDALGGMPFAVFACGHHDWAKTFYKVPIMIDELLARAGAHRVAQMGKANSAVSDMFSDLENWEDEHLWSSSSAAGNETVDNVARTEVKQDITITNPRARALHHNAVECIVSETHKLSESGSALKYHVEIQLPANMKYAPGDHLSVLPINPRQNVRRALARFHLAGDSVLSVARIGHMGTLGQETLSAFDVFASYVELSQPATRRNIATLLSVTPEGEGRYELAELGGAAFESQIRDMRVSVLDLLERYKAIKLCVGAFIDMLPPLRVRTYSISSSALWKPSHASLTISVLAQPALSGQGSFLGVASNFLADLVPGDAVHFTIRPCKKQFHLPDDASAHPIIMVAAGSGIAPFRGFIQDRALQRRNGVQLQPAILFFGCRGSKQDDLYRQELDEFEAEGVVSVRRAFSGEETVSISESRMYVQDRMWADRAEVIQLWNLGAKIYVCGGINMADGVREIFNEIVGPTEVDGKRGAESLNKLSEETMSARYVAEIFSQT | − | − |
| CYP505Ao: CYP505 cytochrome P450 monooxygenase from Aspergillus oryzae, SEQ ID No 9 (protein, listed as Aspergillus oryzae) MRQNDNEKQICPIPGPQGLPFLGNILDIDLDNGTMSTLKIAKTYYPIFKFTFAGETSIVINSVALLSELCDETRFHKHVSFGLELLRSGTHDGLFTAYDHEKNWGLAHRLLVPAFGPLRIREMFPQMHDIAQQLCLKWQRYGPRRPLNLVDDFTRTTLDTIALCAMGYRFNSFYSEGDFHPFIKSMVRFLKEAETQATLPSFISNLRVRAKRRTQLDIDLMRTVCREIVTERRQTNLDHKNDLLDTMLTSRDSLSGDALSDESIIDNILTFLVAGHETTSGLLSFAVYYLLTTPDAMAKAAHEVDDVVGDQELTIEHLSMLKYLNAILRETLRLMPTAPGFSVTPYKPEIIGGKYEVKPGDSLDVFLAAVHRDPAVYGSDADEFRPERMFDEHFQKLPANSWKPFGNGKRSCIGRAFAWQEALMILALILQSFSLDLVDRGYTLKLKESLTIKPDNLWAYATPRPGRNVLHARLALQTNSTHPEGLMSLKHETVESQPATILYGSNTGTCEALAHRLAIEMSSKGRFVCKVQPMDEIEHRRLPRGQPVIIVTGSYDGRPPENARHFVKWLQSLEGNDLEGIQYAVFGCGLPGHHDWSTTFYKIPTLIDTIMAEHGGARLAPRGSADTAEDDPFVELESWSERRVWPGLEAAFDLVRHNSSDGTGKSTRITIRSPYTLRAAHETAVVHQVRVLTSAETTKKVHVELALPDTINYRPGDHLAILPLNSRQSVQRVLSLFQIGSDTILYITSSSATSLPTDTPISAHDLLSGYVELNQVATPTSLRSLAAKATDEKTAEYLEALATDRYTTEVRGNHLSLLDILESYSVPSIEIQHYIQMLPPLRPRQYTISSSPRLNRGQASLTVSVMERADIGGPRNCAGVASNYLASCTPGSILRVSLRHANPDFRLPDESCSHPIIMVAAGSGIAPFRAFVQERSVRQKEGIILPPAFLFFGCRRADLDDLYREELDAFEEQGVVTLFRAFSRAQSESHGCKYVQDLLWMERVRVKTLWGQDAKVFVCGSVRMNEGVKAIISKIVSPTPTEELARRYIAETFI | − | − |
| CYP505St: CYP505 cytochrome P450 monooxygenase from Setosphaeria turcica, Seq ID 12 in Table 2 (protein, listed as Setosphaeria turcica) MSAPNRQLVPIPGPSALPIVGNTFDLDLDASIQSLVNMFEEYGPVFQLTIAGHKQIFVGNVQLTNEVCDESRFCKIVFSGLELLRSAVHDGLFTAHEGERNWDIAHRILMPVFGPTKIRGMFDQMNDIAQQLCLKWGRYGPTFPIEVTEDFTRLTLDTIALCAMGYRFNSFYRDNMHPFVDRMNRFLKDTNTQSGLPDLFNSLWLHAKKRNKEDIKAMREFSQEVVDQRRQNPVDADDLLNALLHQTDPKTGEGLSDSSIIDNMITFLVAGHETTSGLLSFAFYYMLKNPWAMEKAQQEVDNVIGTERVTVNHLSKLEYLNAILRETLRLMPTAPAFTVGALKDDVIGGKYAVKKGEPINPILQAVHCDKEVYGPDATEWKPERMLEEGFHKLPANSWKPFGNGKRGCIGRAFAWQEALLVVAVLLQSFTFTEDDPSYQLRIREALTIKPDGFKIRATLREHKTTAGMVPESVQSLRQAQKSGKPGNSKSSANESMVGQGNGRSVSIFYGSNSGSCESLANLLASDCAKYGFSVQTTDALDAARENFTSNQIVLIVASTYDGKPADNATEFVNWLKSLTGEPLKGVSYAVFGCGHHDWATTFYKIPILIDELLEQRGAQRVAPRGAANAAVSDLFSDLEKWEESILWPALGLTPALLESQGDTQPRLTISFQRPYTQRKEFLEATVTSASELTTSASPSRKCHMELQLPQDMTYNTGDYLAVLPLNPLSNVQRALSRFHLAWDSVLVIEATGPTQLPTATPISVADLFGAYVELSQPATPRNIRALAGAASDEPTKQALLKLAEDDFATQVRDKRLSVLDLLGQYESVALPVEAFIEMLLPLRPRTYSISSAPQWNPSHASITWSIIDTVSWSGHGRFLGVASNHLYDLSPGAVVRVSVRRSNPAFHPPQDPNSYPIIMIASGSGLAPFRGFIQERALQQKAGMTLAPALLFFGCRGRDDDLHRAEMDDFEKSGVVRVMRAYSKAPNEPDAFGCAYIQERVWSERKEFRELWNRGATVFVCGGTKMSEAIKDVFIKIAYGNAGQDDNKSSRDWFASLDPHRYVAEVFN | − | − |
| CYP505Hv: CYP505 cytochrome P450 monooxygenase from Hypocrea virens, SEQ ID No 10 (protein, listed as Hypocrea virens) MKPAKNPNLVEIPKPKGLPVIGSLHHIDLESPLFSLIELIQPLGPICQLTFGSELNIFVSSIELLNELCDESRFQKIVTAELEKLRHVVHDGLFTARNEERNWEIAHRILMPVFGTIKIREMFPEMKDLAQQLCLKWARYGEEYVIDVTADFTRLTLDTLALCTMGFRFNSFHNGTVLHPFVDSMVRTLKEASVQAALPNFINSLRKKSWRRYEKDTAFMRKLCQDIIDKRKSQTDTDSHDLLAALLRGRDPKTGEGLSDDSIIDNMLTFLIAGHETTSGLLSFAMYYLLANPQTMEKARQEVDEVSQGSPIAVEHLSKLPYLNAVLKETLRLQPTAPGFILSSPKDEIIGGKYLIPANIPIGVLLHMVHLDKAVYGEDAAEFKPERMLDENFNKLPPNSWKPFGNGMRGCIGRAFATQEALLIVAMLLQSFTFEMADPGYKLKIKETLTVKPDNFRMKAKLRRGGTATDFQRELQSLGSVGAKLSSTPSVTSAQTGGGDKKPLTILYGSNSGTCEALAYRLASDATLHGFYARKIAPLNAARNSLPKSEPVIILAASYDGLPSDNAEEFFDWLNTAEKDSLKGVSYSVFGCGHRDWVATFQRVPILIDDLLQRAGAERFANRGLADSAVMDLFVELEKWTTDSVWPAISQTDGKQDNDGEGKLISSLLKVEFSQPRQLQQYSHLVEATVMESRSLTTPSAIGKKMHVDIQLPSGVSYHPGDHLLVLPVNPIRNVKRVLSRFHLTWDTIVRASGNESVRIPIETAMTVHELLSSYFELAQPATPRDIRVLAAAAEDEATKQVLNNLATTSYLEDIQEKKTSLLDLLEKFPEISIAFGTYLTLLPSLRLRTYSISSSPSWNSSRATLTLSVLDEPATTPGSKRYLGVASNHLAGLTPGDLIHVATRPVKGIFQMPADLSKAPTIMIAAGAGLAPFRGFIQERAYQQQNGVQLAPAALFFGCRSSHDDLYRSELDAFESSGVIRVFRAYSREDVGSKSNTRKGYVQDSLQAEKDVFVQLWNAGAKVYVCGSVKMASQVKDLVANLVYTAEPMDAQKEFTPQEWFKRFEKTRYAAEIFT | − | − |
